# Assay results as given in patent US20160068595A1.
# B1: HH12 humanized anti-IL-20 antibody (antibody, V domains shown)
# VH: EVQLQESGGGLVQPGGSLRLSCAASGFTFSDAWMDWVRQAPGKGLEWVGEIRSKANNYATYFAESVKGRFTISRDDSKNSLYLQMNSLKTEDTGVYYCTKLSLRYWFFDVWGQGTLVTVSS
# VL: DIQMTQSPLSLSVTPGQPASISCKSSQSLLDSDGKTYLNWYQQKPGQSPQLLIYLVSKLDSGVPDRFSGSGSGTDFTLKISRVEAEDVGVYYCWQSTHFPWTFGQGTKVEIKR
# Legend:
# [1] = biological target: human IL-20 (interleukin-20), recombinant (human) (UniProt Q9NYY1); test: SPR, BIAcore T100; antibody captured on anti-human IgG CM5 chip, IL-20 as analyte, 1:1 model
# human IL-20 (interleukin-20), recombinant (human), sequence (Q9NYY1 25-176 limits assumed): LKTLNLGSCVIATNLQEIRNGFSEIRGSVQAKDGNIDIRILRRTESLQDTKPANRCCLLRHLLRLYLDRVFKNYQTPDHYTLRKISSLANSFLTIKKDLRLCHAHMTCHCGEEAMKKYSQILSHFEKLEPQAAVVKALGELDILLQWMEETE
# [2] = biological target: human IL-20 (interleukin-20), recombinant (human) (UniProt Q9NYY1); test: binding kinetics of CDR mutants; method not named
binder,measurement,setting,value
B1,Kd,[1],2.68 nM
same,koff,[1],0.00358 s⁻¹
same,kon,[1],1.34e+06 M⁻¹ s⁻¹
same,Kd,[2],2.68 nM
same,koff,[2],0.00358 s⁻¹
same,kon,[2],1.34e+06 M⁻¹ s⁻¹
